Results published in the Immune Epitope Database (IEDB).
One block for each sequence: values may come before it.

Legend:
[1] = target: HLA-A*02:01; test: IEDB peptide-MHC binding, purified MHC/competitive/radioactivity; filed as Kd, often an IC50 or EC50 that approximates it; ≥ and ≤ were set here for values at or beyond the usual limits of such assays
[2] = target: HLA-A*02:06; test: as above
[3] = target: HLA-A*02:17; test: as above
[4] = target: HLA-A*03:01; test: IEDB peptide-MHC binding, purified MHC/competitive/fluorescence; filed as Kd, often an IC50 or EC50 that approximates it; ≥ and ≤ were set here for values at or beyond the usual limits of such assays
[5] = target: HLA-B*54:01; test: IEDB peptide-MHC binding, purified MHC/competitive/radioactivity; filed as Kd, often an IC50 or EC50 that approximates it; ≥ and ≤ were set here for values at or beyond the usual limits of such assays
[6] = target: HLA-B*07:02; test: as above
[7] = target: HLA-B*53:01; test: as above
[8] = target: HLA-B*35:01; test: as above
[9] = target: HLA-B*51:01; test: as above
[10] = target: HLA-A*02:03; test: as above
[11] = target: HLA-B*15:01; test: as above; details: source organism: Dengue virus 1 Brazil/97-11/1997
[12] = target: HLA-B*08:01; test: as above; details: source organism: Dengue virus 1 Brazil/97-11/1997
[13] = target: HLA-A*68:02; test: as above
[14] = target: HLA-A*01:01; test: as above; details: source organism: Dengue virus 2 Jamaica/1409/1983
[15] = target: HLA-A*02:01; test: IEDB peptide-MHC binding, purified MHC/direct/fluorescence; filed as Kd, often an IC50 or EC50 that approximates it; ≥ and ≤ were set here for values at or beyond the usual limits of such assays; details: source organism: Rift Valley fever virus
[16] = target: HLA-A*69:01; test: as above; details: source organism: Rift Valley fever virus
[17] = target: HLA-B*15:01; test: as above; details: source organism: Rift Valley fever virus
[18] = target: HLA-A*02:12; test: as above; details: source organism: Rift Valley fever virus
[19] = source organism: Dengue virus 4 Philippines/H241/1956
[20] = source organism: Vaccinia virus WR
[21] = source organism: Dengue virus 3 China/80-2/1980
[22] = source organism: Dengue virus 3 Martinique/1243/1999
[23] = source organism: Dengue virus 2 Jamaica/1409/1983
[24] = source organism: Dengue virus 1 Singapore/S275/1990
[25] = source organism: Dengue virus 3 Sri Lanka/1266/2000
[26] = source organism: Mammarenavirus guanaritoense
[27] = source organism: SARS coronavirus Tor2
[28] = source organism: Dengue virus 2 Puerto Rico/PR159-S1/1969

Sequence: KLTDWDFVV
Kd ([1]; source organism: dengue virus type 4): 61 nM
Kd [2, 19]: 2.33 nM
Kd [3, 19]: 744 nM

Kd ([4]; source organism: Escherichia coli O157:H7 str. EDL933): 25.1 nM
Sequence: KMARAGLGH

Sequence: KPEVRIPVDL
Kd [5, 20]: 14300 nM
Kd [6, 20]: 235 nM
Kd [7, 20]: ≥ 42400 nM
Kd [8, 20]: ≥ 69900 nM
Kd [9, 20]: ≥ 69600 nM

Sequence: LLANILSEH
Kd ([4]; source organism: Vibrio cholerae 2740-80): 525 nM

Sequence: LLLLGLMILL
Kd [1, 21]: 11.7 nM
Kd [2, 22]: 21.5 nM
Kd [3, 21]: 94.9 nM

Sequence: LLLLTLLATV
Kd [1, 23]: 64.6 nM
Kd [2, 23]: 23.8 nM
Kd [10, 23]: 1.37 nM
Kd [3, 23]: 54.4 nM

Sequence: LLMLVTPSM
Kd [1, 24]: 7.86 nM
Kd [11]: 2.26 nM
Kd [3, 24]: 24.3 nM
Kd [12]: 1080 nM

Sequence: LPSLIKTILA
Kd [5, 20]: 1.54 nM
Kd [6, 20]: 1520 nM
Kd [7, 20]: 1960 nM
Kd [8, 20]: 2230 nM
Kd [9, 20]: 11000 nM

Sequence: LTAALLLLV
Kd [1, 23]: 5760 nM
Kd [2, 23]: 3.73 nM
Kd [3, 23]: ≥ 41700 nM
Kd [13, 23]: 5.36 nM
Kd [14]: ≥ 42900 nM

Sequence: MIAGVFFTFV
Kd [1, 25]: 12.6 nM
Kd [2, 22]: 1.02 nM
Kd [10, 22]: ≤ 0.1 nM
Kd [3, 25]: 83 nM
Kd [13, 22]: 2.85 nM

Sequence: NPLVITTSV
Kd [5, 26]: 79.8 nM
Kd [6, 26]: 1330 nM
Kd [7, 26]: 14200 nM
Kd [8, 26]: 5530 nM
Kd [9, 26]: 381 nM

Sequence: QVMLLVLCAV
Kd [1, 21]: 146 nM
Kd [2, 22]: 11.8 nM
Kd [10, 22]: 604 nM
Kd [3, 21]: ≥ 35100 nM

Sequence: SIILEFFLIV
Kd [1, 23]: 29.9 nM
Kd [2, 23]: 43.7 nM
Kd [3, 23]: 4020 nM

Sequence: SPLFLIVAAL
Kd [5, 27]: 949 nM
Kd [6, 27]: 248 nM
Kd [7, 27]: 1040 nM
Kd [8, 27]: 3330 nM
Kd [9, 27]: 970 nM

Sequence: TAAAWYLWEV
Kd [1, 23]: 10.3 nM
Kd [2, 23]: 1.28 nM
Kd [3, 23]: 1020 nM
Kd [13, 23]: 4.09 nM

Sequence: TLYAVATTFI
Kd [1, 28]: 86.3 nM
Kd ([10]; source organism: Dengue virus 2 Peru/IQT2913/1996): 13.7 nM
Kd [3, 28]: 1300 nM

Sequence: TSMAMTCIAV
Kd [1, 19]: 12.3 nM
Kd [2, 19]: 9.2 nM
Kd [3, 19]: 62.5 nM
Kd [13, 19]: 1.66 nM

Sequence: VILAGPMPV
Kd [3, 23]: 1360 nM

Sequence: VMAVGLVSI
Kd [10, 22]: 1.11 nM
Kd [3, 21]: 3200 nM

Sequence: YLEFEALGFL
Kd [1, 21]: 77.1 nM
Kd [3, 21]: 45.3 nM

Sequence: YLKEACNHA
Kd [15]: 243 nM
Kd [16]: 473 nM
Kd [17]: 652 nM
Kd [18]: 52 nM
